In PMC12212259 (2025):
Read-outs that look alike come from different tables or passages of the source. One block for each binder: values may come before it.

How the values were obtained:
Test in all cases: SPR
Nb127–biotin = Nb127–biotin (biotin at the C terminus (sortagging))
Nb6E-biotin [1] = target: T1, Nb6E-biotin (biotin at the C terminus (sortagging))
Nb6E-biotin [2] = target: T1, Nb6E-biotin; remark: listed apart in the source
Nb6E-biotin [3] = target: T1, Nb6E-biotin; remark: listed apart in the source

T1 sequence (VHH, as listed by the source): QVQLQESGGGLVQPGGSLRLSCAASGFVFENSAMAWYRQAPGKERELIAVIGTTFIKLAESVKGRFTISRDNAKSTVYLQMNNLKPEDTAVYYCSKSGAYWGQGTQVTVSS
Chain of Nb127–biotin (biotin at the C terminus (sortagging)) (VHH, as listed by the source): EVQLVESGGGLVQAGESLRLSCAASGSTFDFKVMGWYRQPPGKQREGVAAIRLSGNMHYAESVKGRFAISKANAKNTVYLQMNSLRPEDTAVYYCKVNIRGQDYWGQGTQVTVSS

Kd (Nb127–biotin): 16.8 nM
Binder: SFEDFWKGED [127-tag peptide]

Kd (Nb6E-biotin [1]): 159 nM
Binder: QADQEAKELARQIS [6E-WT peptide]

Kd (Nb6E-biotin [2]): 4.2 nM
Binder: GGGQADQEAKELARQIS [G3-6E]

Kd (Nb6E-biotin [3]): 15.2 nM
Binder: QADWEAKELARQIS [6E-W4]

Kd (Nb6E-biotin [3]): 17.6 nM
Binder: QADQEAWELARQIS [6E-W7]

Kd (Nb6E-biotin [1]): 78.2 nM
Binder: QADQEAKEMARQIS [6E-M9]

Kd (Nb6E-biotin [3]): 9.2 nM
Binder: QADQEAKWLARQIS [6E-W8]
